According to patent US20230203188A1:

Tests used:
[1] = biological target: ED-tagged human SIRPα V2 receptor on Jurkat SIRPα-V2 signaling cells (human) (UniProt P78324); assay: cell-based or functional assay
[2] = biological target: ED-tagged human SIRPα V1 receptor on Jurkat SIRPα-V1 signaling cells (human) (UniProt P78324); assay: cell-based or functional assay
[3] = biological target: full-length cyno SIRPβ1 (XP_005568598, clone PA2), on CHO cells (cynomolgus monkey); assay: flow cytometry on CHO cells expressing the target
[4] = biological target: full-length cyno SIRPα (XP_015313155, clone P3HD10), on CHO cells (cynomolgus monkey); assay: flow cytometry on CHO cells expressing the target

Sequence of KWAR23 (antibody) (VH): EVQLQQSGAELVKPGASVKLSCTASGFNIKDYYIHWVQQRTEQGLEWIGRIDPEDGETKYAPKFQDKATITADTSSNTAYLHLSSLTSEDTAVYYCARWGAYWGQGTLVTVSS
Sequence of KWAR23 (antibody) (VL): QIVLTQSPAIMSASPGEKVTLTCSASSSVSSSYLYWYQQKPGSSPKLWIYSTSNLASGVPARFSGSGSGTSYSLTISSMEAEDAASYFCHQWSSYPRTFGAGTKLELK
Sequence of ED-tagged human SIRPα V1 receptor on Jurkat SIRPα-V1 signaling cells (human) (P78324 31-504): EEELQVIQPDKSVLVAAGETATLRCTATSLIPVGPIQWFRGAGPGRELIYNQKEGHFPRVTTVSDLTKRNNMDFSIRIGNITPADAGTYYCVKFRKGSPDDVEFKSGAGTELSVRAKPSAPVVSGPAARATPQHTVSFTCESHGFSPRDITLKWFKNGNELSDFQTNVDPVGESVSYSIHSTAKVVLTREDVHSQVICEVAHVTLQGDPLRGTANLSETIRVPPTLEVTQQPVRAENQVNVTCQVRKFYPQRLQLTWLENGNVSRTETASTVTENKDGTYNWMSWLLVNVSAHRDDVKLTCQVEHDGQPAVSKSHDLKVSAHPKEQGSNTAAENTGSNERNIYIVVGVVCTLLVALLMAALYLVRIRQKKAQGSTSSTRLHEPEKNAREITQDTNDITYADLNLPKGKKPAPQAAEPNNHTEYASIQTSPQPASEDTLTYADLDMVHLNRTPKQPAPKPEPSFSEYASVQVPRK
Sequence of ED-tagged human SIRPα V2 receptor on Jurkat SIRPα-V2 signaling cells (human) (P78324 31-504): as above

IC50 of SIRPα signaling (SHP-1 recruitment, enzyme fragment complementation, Jurkat reporter cells) [1]: 0.04 nM
IC50 of SIRPα signaling (SHP-1 recruitment, enzyme fragment complementation, Jurkat reporter cells) [2]: 0.04 nM
EC50 [3]: 0.2 nM
EC50 [4]: 0.5 nM
Substance: KWAR23 (antibody)
